Data: the nanobody polyreactivity screen of Harvey et al. (2022)

Test: yeast display, Sf9 membrane polyspecificity reagent, FACS + sequencing; frameworks hold sequencing errors
In short: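 Synthetic nanobody libraries on Saccharomyces cerevisiae BJ5465 were galactose-induced for 36–48 hours, stained 1 hour at 4 °C with 10% biotinylated, detergent-solubilized Sf9 membrane reagent and enriched on streptavidin microbeads. FACS then separated cells into low and high (top ~1%) gates by anti-HA (expression) and streptavidin (reagent binding) fluorescence. Genes were colony-PCR amplified, MiSeq 2 × 250 sequenced and CDR-length filtered. A clone's polyreactivity label is that of its gate of origin.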

QVHLVESGGGLVQAGGSLRLICAASGSTFLYYAKGWYRQAPGNEMELVAANSQSSASTYYADSVKGRFTISRDNAKTTIYFQIISLKPEDTAVYYCAADYWSVPYIYEYWRQGTQVTVSS
polyreactivity (PSR sort gate): high polyreactivity

QVQLVESGGGLVQAGGSLRLSCAASGFIFAGYAMGWYRQAPGKERELVAAINRNGRSTYYADSVKGRFTISRDNAKNTVYLQMNSLKPEDTAVYYCNARSFARIGAGKGDYWGQGTQVTVSS
polyreactivity (PSR sort gate): high polyreactivity

QVQLVESGGGLVQAGGSLRLSCAASGSIFYRNVMGWYRQAPGKERELVAVITGSGDSTFYADSVKGRFTISRDNAKNTVYLQMNSLKPEDTAVYYCNARQVSGGYYYWGQGTQVTVSW
polyreactivity (PSR sort gate): low polyreactivity

QVQLVESGGGLVQAGGSLSLSCAASGSTFVWYAMGWYRQAPGTERELVATITYGGGSTNYADSVKGRFTISRDNAKNTVYLQMNSLKPEDTAVYYCNADTYFESGYWGQGTLVTVSS
polyreactivity (PSR sort gate): low polyreactivity

QVQLQESGGGLVQAGGSLRQSYAASGYIFPSLAMGWYRQAPGKEREFVAAIGRGSTNNYADSLKGRFTISRDNEKNTAYQQMNSLKPEVTAVYYCAADASPLTRHLYWGQGTQVTVSS
polyreactivity (PSR sort gate): low polyreactivity

QVQLVESGGGLVQAGGSLRLSCAASGRIFGYYAMGWSRQAPGKEWELVAAISSGGRTYYADSVKGRFTISRDNAKNTVYLQMNSLKPEDTAVYYCAARSRVPPAGPRYDYWGLGTQVTVSS
polyreactivity (PSR sort gate): high polyreactivity

QLQLVESGGGLVQAGGSLRLSCAASGITLYRYVMGWYRQAPGKERELVADISGRGTSTYYADSVKGRFTISRDNAKNTVYLQMNSLKPEDTSVYYCNAEYTKTGALVIPYTYYYAADYWGQGTQVTVSS
polyreactivity (PSR sort gate): low polyreactivity

QVQLVESGGGLVQAGGSLRLSCAASGRIFDIYAMGWYRQAPGKERELVAAIDESGGSTYYADSVKGRFTISRDNAKNTVYLQMNSLKPEDTAVYYCATVDTWTISYGWYCFTYEYWGQCTQVTVSS
polyreactivity (PSR sort gate): low polyreactivity

QVQLVESGGGLVQAGGSLRLSFAASGYTFWYYAMGWYRQAPGKERELVARISKRGGSTYYADSVKGRFTISRDNAKNTVYLQMNSLKPEDTEVYYCAADTRQQSHSMDYWGQGTQVTVSS
polyreactivity (PSR sort gate): low polyreactivity

QVPLVESGGGLVQAGGSLRLSCAASGSIFAPYTMGWYRQAPGKERELVAAISVTTGITYYADTLKGRFTISRDNAKNTVYLQMNSLKPEDTGVYYCAAELYKSLWYEYWGQGTQVTVSS
polyreactivity (PSR sort gate): low polyreactivity

QVQLVESGGGLVQAGGSLRLSCAASGSIFTPNVMGWYRHAPGKERELVAAISQSGGSTFYADSVKGRFTISRDNAKNTVYLQMNSLKPEDTAVYYCNVDDNSEYDYWGQGSQVTVSS
polyreactivity (PSR sort gate): low polyreactivity

QVQLVESGGGLVQAGGSLRLSCAASGRIFYYNGMGWYRQAPGKERELVAAISSRGGSTYYADSVKGRFTISRDNAKNTVYLQMNSLKPEDTAVYYCAATLSDRYSWRPYGMYYWGQGTQVTVSS
polyreactivity (PSR sort gate): high polyreactivity

QVQLVESGGGLVQAGGSLRLSCAASGSIFSPYAMGWYRQAPGKERELVAAISRSGRTHYADSVKGRFTISRDNAKNTVYLQMNSLKPEDTAVYYCAAGVVYGYYYWGQGTQVTVSS
polyreactivity (PSR sort gate): high polyreactivity

QVHLVESGGGLVQAGGSLRLSCAASGSIFVYNAMGWYRQAPGKERELVAAIDTVGSTNYADSVKGRFTISRDNAKNTVYLQMNSLKPEDTAVYYCAVVTTYWSFYEQVIPSNYWGQGTQVTVSS
polyreactivity (PSR sort gate): low polyreactivity

QVQLVESGGGLVQAGGSLRLSCAASGIIFYRYAMVWYRQAPGKERELVAAITWSGVSTSYADSVKGRFTISRDNAMNTVYLQMTSLKPEDTAVYYCNKDQGTLYGDMDSWGQGTQVTVSS
polyreactivity (PSR sort gate): low polyreactivity

QVQLVESGGGLVQAGGSLRLSCAASGSTFDPNTKGWYRQAPGKERELVATITSVDSTNYADSVKGRFTISRDNANNTVYLQMNSLKTEDTAVYYCNADFVRVFFYAYDYWGQGTQVTVSS
polyreactivity (PSR sort gate): low polyreactivity

QVQLVESGGCLVQAGGSLRLSCAASGLNFSKNVKGWYIQAPGKERELVAAISQRGGSTYYADSVKGRFTISRDYAKNTVYLQMNSLKPEDTAVYYCAADTTVSHEDYWGQGTQVTVSS
polyreactivity (PSR sort gate): low polyreactivity

QVQLVESGGGLVQAGGSLRLSCAASGSIFFIYAMGWYRQAPGKERELVAAINDGGGSTYYADSVKGRFTISRDNAKNTVYLLMNSLKPEDTAVYYCAAEWSWGPYRYDYWGQGTQVTVSS
polyreactivity (PSR sort gate): high polyreactivity

QVQLVESGGGLVQAGGSLRLSCAASGFTIDAYAMGWDRQAPGKERELVAAISGSGGSTYYADSVKGRFTISRDNAKNTVYLQMNSLKPEDTAVYYCATDPGPYDYDYWGQGTQVTVSS
polyreactivity (PSR sort gate): low polyreactivity

QVQLVESGGVLVQAGGSLRLSCAASGSIFYVNAMGWYRQAPGKERELVATITTDGSTNYADSVKGRFTISRDNAKNTVYLPMNSLKPEDTAVYYCAAERWLATPTVPWYLYNYWGQGTQVTVSS
polyreactivity (PSR sort gate): low polyreactivity

QVQIVESGGGLVQAGVSLRISCAASGSTFADYTMGWYRQAPGKERELVAAISQSGARTYYADSVKGRFTISRDNAKNTVYLQMNSLKPEDTAVYYCAATKAASGPYFRYYYWGQGTQVTVSS
polyreactivity (PSR sort gate): high polyreactivity

QVQLVESGGGLVQAGGSLRLSCAASGFTFNDNAMGWYRQAPGKERELVAAITYGGSTYYADSVKGRFTISRDNAKNTVYLQMNSLKPEDTAVYYCARDLSAGPGRDYWGQGTQVTVSS
polyreactivity (PSR sort gate): low polyreactivity

QVQVVESGGGFVQAGGSLRISCAASGRIFATYAMGWYRQAPGKERELVAAISDSGGRTYYADSVKGRFTISRDTAKNTVYFQMNSLKPEDTAVYYCNARGTRASRYDYWGQGTQVTVSS
polyreactivity (PSR sort gate): high polyreactivity

QVQLVESGGGLVQAGGSLRLSCAASGSIFYGNAMGWYRPAPGKERELVARISWSGSNTRYADSVKGRFTISRDNAKNTVYLQMNSLKPEDTAVYYCNARGFPGKFGYWGQGTQVTVSS
polyreactivity (PSR sort gate): high polyreactivity

QVQLVESGGGLVQAGGSLRLSCAASGSTFPWYAMGWARQAPGKETELVAAITTSGGTTYYADSVKGRFTISRDNAKNTVYLQMNSLKPEDTAVYYCNKQFGYPWEYYSYSYDYWGQGTQVTVSS
polyreactivity (PSR sort gate): low polyreactivity

QVQLVESGGGLVQAGGSLRLSCAASGSIFRYNAMGWYRQAPGTEREVVAGITSGGDTNYADSVKGRFTISRDNAKNTVYLQMNSLKPEDTAVYYCAKRWYGGRRYDYWGQGTQVTVSS
polyreactivity (PSR sort gate): low polyreactivity

QVQLVESGGGLVQAGGSLRLSCAASGFTFDAYAMGWYRQAPGKERELVADINYSVGSTTYADSVKVRFTISRDNAKNTVYLQMNSLKPEDTAVYYCAAQGTWYAWDYDYWGQGTQVTVSS
polyreactivity (PSR sort gate): low polyreactivity

QVQLVESRGGLVQAGGSLRLSCAASGRTIYPYTMGCYRQAPGKERELVAAISSSGTRTYYADSVKGRFTISRDIAKNTVYLQMNSLKPEDTAVYDCATRRPGSFGYWGQGTQVTVSS
polyreactivity (PSR sort gate): high polyreactivity

QVQLVESGGGLVQAGGSLRLSCAASGLTFYYYAMGWYRQAPGKERELVATISSGGGRTYADSVKGRFTISRDNAKNTVYLQMNSLKPEDTAVYYCAVRNTKSYWFGYWGQGTQVTVSS
polyreactivity (PSR sort gate): high polyreactivity

QVQLVESGGGLVQAGGSLRLSCAASGSIFESYAMGWYRQAPGKEWELVASISGGGSTYYADSVKGRFTISRDNAKNTVYLQMNSLKPEDTAVYYCATVYVRYRQSRLIRYGYWVQGTQVTVSS
polyreactivity (PSR sort gate): high polyreactivity

QVQLVESGGGLVQAGGSLRLSCAASGFIFDWYAMGWYRQAPGKERELVAAINESGGDTYYADSVKGRFTISRDNAKNTVYLQMNSLKPEDTAVYYCAARTYHRYDYWGQGTQVTVSS
polyreactivity (PSR sort gate): high polyreactivity

QVQVVESGGGIVQAGGSLGLSCAASGSNFSYNAMGWYRQAPRKERELVATISNTDSTNYADSVKGRFTISRDNAKNTVYLQMNSLKPEDTAVYYCAVVSARIDYEYWGQGTQVTVSS
polyreactivity (PSR sort gate): low polyreactivity
